Among the data in paper PMC5854732 are stoichiometry N values, retold here.

For test [1], the target named is toposome (major yolk protein) purified from gonads of Paracentrotus lividus collected at the bloom phase (T0) (Paracentrotus lividus (endogenous in gonads)). The test can be described thus: SEC; gel filtration on Sephacryl S-400 HR (1.8 x 42 cm), Tris-HCl buffer pH 8.0 with 150 mM NaCl, 0.5 ml/min; size by comparison with standards (blue dextran 2,000 kDa, thyroglobulin 669 kDa, apoferritin 443 kDa); apparent molecular weight. (In general: In gel filtration, larger molecules generally elute earlier.)

The target of test [2] is toposome (major yolk protein) purified from gonads of Paracentrotus lividus collected prior to the bloom (C) (Paracentrotus lividus (endogenous in gonads)). The description is as above.

By stoichiometry N is commonly meant the number of molecules, sites or subunits per partner or assembly.

Turning to “toposome (major yolk protein) purified from gonads of Paracentrotus lividus collected at the bloom phase (T0) (natural protein)”, the stoichiometry N in test [1] turned out to be 3. As to “toposome (major yolk protein) purified from gonads of Paracentrotus lividus collected prior to the bloom (C) (natural protein)”, the stoichiometry N in test [2] worked out at 3.
